# Test results as given in patent US20230312744A1, “Modulatory Substance of Tumor Immune Microenvironment, and Preventive, Diagnostic and/or Therapeutic Utilization of the Same” (The University Of Tokyo, priority 2020, published 2023).
# B1: 55F3: Mouse monoclonal antibody against human TCTP peptide SEQ ID NO: 25; CDRs SEQ ID NO: 1-6, VH SEQ ID NO: 19, VL SEQ ID NO: 22 (antibody, listed as Mus musculus)
# VH: MRVLILLWLFTAFPGILSDVQLQESGPGLVKPSQSLSLTCTATGYSIASDYAWNWIRQFPGNKLEWMGYINYSGSTGYNPSLKSRISITRDTSKNQFFLQLNSVTTEDTATYYCARFEAGYWGQGTTLTVSSAKTTPPSVYPLAPGSAAQTNSMVTLGCLVKGYFPEPVT
# VL: MDMRTPAQFLGILLLWFPGIKCDIKMTQSPSSMSASLGERVTITCKASQDINRYLSWFQQKPGKSPKTLIYRANRLVDGVPSRFSGSGSGQDYSLTISSLEYGDMGIYYCLQYNEFPLTFGAGTKLELKRADAAPTVSIFPPSSEQLTSGGASVVCFLN
# Test system: Cxcl1 mRNA from PECs
# Test: PECs stimulated with supernatant of dead SL4 cells containing antibody, Cxcl1 mRNA by RT-qPCR
# Assay type: cell-based, mouse
# Conditions: PECs stimulated 2 hours with culture supernatant of SL4 cells containing 55F3, vs control IgG, FIG. 12(b)
# Description: In FIG. 12(b), PECs (2×10^5 cells) were stimulated with a supernatant of dead SL4 cells comprising the 55F3 antibody or control IgG. After the stimulation for 2 hours, the expressed Cxcl1 mRNA was quantified by RT-qPCR. n=3, and Sup: culture supernatant. In FIG. 12(c), TCTP WT SL4 cells or TCTP KO SL4 cells ([…]) were subcutaneously transplanted into C57BL/6 mice. After the transplantation, DHA (50 mg/kg) or DMSO was intraperitoneally administered to the mice every day (n=6). In FIG. 12(d), (left view) the expression level of TCTP in the interstitial area of normal large intestinal tissues was compared with the expression level of TCTP in the interstitial area of colorectal cancer tissues. In FIG. 12(d), (right view) a normal colon crypt was compared with a neoplastic lesion. […] Spearman r: spearman correlation coefficients. *P<0.05, **P<0.01. Regarding FIG. 12(b), repeated measures one-way ANOVA with Dunnett's multiple comparisons test. Regarding FIG. 12(c), repeated measures one-way ANOVA with Tukey's multiple comparisons test. Regarding FIG. 12(d), unpaired two-sided Student's t-test. NS indicates “no significant difference.” The data are shown as a mean value ±[…] (s.e.m.).
# RAW264.7 cells, the mouse melanoma cell line B16F10 cells, the mouse fibrosarcoma cell line Meth-A cells, and HEK293T cells were obtained from RIKEN BioResource Center (Japan). […]
molecule,measurement,value
B1,expression of Cxcl1 mRNA from PECs,suppressed
